Experimental data as given in patent US20130273029A1 (Novartis, published 2013).

B1: MOR13759 (antibody, human IgG1, kappa, V domains shown)
VH: QVQLVQSGAEVKKPGESLKISCKGSGYSFTTTWVAWVRQMPGKGLEWMGIIYPGLSDTIYSPSFQGQVTISADKSISTAYLQWSSLKASDTAMYYCARVHIIQPPSAWSYNAMDVWGQGTLVTVSS
VL: DIQMTQSPSSLSASVGDRVTITCRASQSISTYLNWYQQKPGKAPKLLIFGASNLQSGVPSRFSGSGSGTDFTLTISSLQPEDFATYYCQQSITELFTFGQGTKVEIKR
notes: tested as IgG
B2: MOR13765 (antibody, human IgG1, kappa, V domains shown)
VH: QVQLVQSGAEVKKPGESLKISCKGSGYSFTGSWVAWVRQMPGKGLEWMGIIYPGTSDTIYSPSFQGQVTISADKSISTAYLQWSSLKASDTAMYYCARVHIIQPPSAWSYNAMDVWGQGTLVTVSS
VL: DIQMTQSPSSLSASVGDRVTITCRASQSISTYLNWYQQKPGKAPKLLIFGASNLQSGVPSRFSGSGSGTDFTLTISSLQPEDFATYYCQQSITELFTFGQGTKVEIKR
notes: tested as IgG
B3: MOR13766 (antibody, human IgG1, kappa, V domains shown)
VH: QVQLVQSGAEVKKPGESLKISCKGSGYSFTTTWVAWVRQMPGKGLEWMGIIYPGSSDTIYSPSFQGQVTISADKSISTAYLQWSSLKASDTAMYYCARVHIIQPPSAWSYNAMDVWGQGTLVTVSS
VL: DIQMTQSPSSLSASVGDRVTITCRASQSISTYLNWYQQKPGKAPKLLIFGASNLQSGVPSRFSGSGSGTDFTLTISSLQPEDFATYYCQQSITELFTFGQGTKVEIKR
notes: tested as IgG
B4: MOR13767 (antibody, human IgG1, kappa, V domains shown)
VH: QVQLVQSGAEVKKPGESLKISCKGSGYSFTTSWVAWVRQMPGKGLEWMGIIYPGQSDTIYSPSFQGQVTISADKSISTAYLQWSSLKASDTAMYYCARVHIIQPPSAWSYNAMDVWGQGTLVTVSS
VL: DIQMTQSPSSLSASVGDRVTITCRASQSISTYLNWYQQKPGKAPKLLIFGASNLQSGVPSRFSGSGSGTDFTLTISSLQPEDFATYYCQQSITELFTFGQGTKVEIKR
notes: tested as IgG
B5: MOR13762 (antibody, human IgG1, kappa, V domains shown)
VH: QVQLVQSGAEVKKPGESLKISCKGSGYSFTNTWVAWVRQMPGKGLEWMGIIYPGQSDTIYSPSFQGQVTISADKSISTAYLQWSSLKASDTAMYYCARVHIIQPPSAWSYNAMDVWGQGTLVTVSS
VL: DIQMTQSPSSLSASVGDRVTITCRASQSISTYLNWYQQKPGKAPKLLIFGASNLQSGVPSRFSGSGSGTDFTLTISSLQPEDFATYYCQQSITELFTFGQGTKVEIKR
notes: tested as IgG
B6: MOR13761 (antibody, human IgG1, kappa, V domains shown)
VH: QVQLVQSGAEVKKPGESLKISCKGSGYSFTQTWVAWVRQMPGKGLEWMGIIYPGQSDTIYSPSFQGQVTISADKSISTAYLQWSSLKASDTAMYYCARVHIIQPPSAWSYNAMDVWGQGTLVTVSS
VL: DIQMTQSPSSLSASVGDRVTITCRASQSISTYLNWYQQKPGKAPKLLIFGASNLQSGVPSRFSGSGSGTDFTLTISSLQPEDFATYYCQQSITELFTFGQGTKVEIKR
notes: tested as IgG
B7: MOR13763 (antibody, human IgG1, kappa, V domains shown)
VH: QVQLVQSGAEVKKPGESLKISCKGSGYSFTSYWVAWVRQMPGKGLEWMGIIYPGQSDTIYSPSFQGQVTISADKSISTAYLQWSSLKASDTAMYYCARVHIIQPPSAWSYNAMDVWGQGTLVTVSS
VL: DIQMTQSPSSLSASVGDRVTITCRASQSISTYLNWYQQKPGKAPKLLIFGASNLQSGVPSRFSGSGSGTDFTLTISSLQPEDFATYYCQQSITELFTFGQGTKVEIKR
notes: tested as IgG
B8: MOR13867 (antibody, human IgG1, kappa, V domains shown)
VH: QVQLVQSGAEVKKPGESLKISCKGSGYSFSNYWIAWVRQMPGKGLEWMGIIYPGQSDTIYSPSFQGQVTISADKSISTAYLQWSSLKASDTAMYYCARVHIIQPPSAWSYNAMDVWGQGTLVTVSS
VL: DIQMTQSPSSLSASVGDRVTITCRASQSISTYLNWYQQKPGKAPKLLIFGASNLQSGVPSRFSGSGSGTDFTLTISSLQPEDFATYYCQQSITELFTFGQGTKVEIKR
notes: tested as IgG

Key:
[1] = target: T1, Human HER3, endogenous, on human cancer cell lines (SK-Br-3, MCF7, BT-474) (human, UniProt P21860 20-1342); experiment: cell-based or functional assay
T1 sequence (P21860 20-1342): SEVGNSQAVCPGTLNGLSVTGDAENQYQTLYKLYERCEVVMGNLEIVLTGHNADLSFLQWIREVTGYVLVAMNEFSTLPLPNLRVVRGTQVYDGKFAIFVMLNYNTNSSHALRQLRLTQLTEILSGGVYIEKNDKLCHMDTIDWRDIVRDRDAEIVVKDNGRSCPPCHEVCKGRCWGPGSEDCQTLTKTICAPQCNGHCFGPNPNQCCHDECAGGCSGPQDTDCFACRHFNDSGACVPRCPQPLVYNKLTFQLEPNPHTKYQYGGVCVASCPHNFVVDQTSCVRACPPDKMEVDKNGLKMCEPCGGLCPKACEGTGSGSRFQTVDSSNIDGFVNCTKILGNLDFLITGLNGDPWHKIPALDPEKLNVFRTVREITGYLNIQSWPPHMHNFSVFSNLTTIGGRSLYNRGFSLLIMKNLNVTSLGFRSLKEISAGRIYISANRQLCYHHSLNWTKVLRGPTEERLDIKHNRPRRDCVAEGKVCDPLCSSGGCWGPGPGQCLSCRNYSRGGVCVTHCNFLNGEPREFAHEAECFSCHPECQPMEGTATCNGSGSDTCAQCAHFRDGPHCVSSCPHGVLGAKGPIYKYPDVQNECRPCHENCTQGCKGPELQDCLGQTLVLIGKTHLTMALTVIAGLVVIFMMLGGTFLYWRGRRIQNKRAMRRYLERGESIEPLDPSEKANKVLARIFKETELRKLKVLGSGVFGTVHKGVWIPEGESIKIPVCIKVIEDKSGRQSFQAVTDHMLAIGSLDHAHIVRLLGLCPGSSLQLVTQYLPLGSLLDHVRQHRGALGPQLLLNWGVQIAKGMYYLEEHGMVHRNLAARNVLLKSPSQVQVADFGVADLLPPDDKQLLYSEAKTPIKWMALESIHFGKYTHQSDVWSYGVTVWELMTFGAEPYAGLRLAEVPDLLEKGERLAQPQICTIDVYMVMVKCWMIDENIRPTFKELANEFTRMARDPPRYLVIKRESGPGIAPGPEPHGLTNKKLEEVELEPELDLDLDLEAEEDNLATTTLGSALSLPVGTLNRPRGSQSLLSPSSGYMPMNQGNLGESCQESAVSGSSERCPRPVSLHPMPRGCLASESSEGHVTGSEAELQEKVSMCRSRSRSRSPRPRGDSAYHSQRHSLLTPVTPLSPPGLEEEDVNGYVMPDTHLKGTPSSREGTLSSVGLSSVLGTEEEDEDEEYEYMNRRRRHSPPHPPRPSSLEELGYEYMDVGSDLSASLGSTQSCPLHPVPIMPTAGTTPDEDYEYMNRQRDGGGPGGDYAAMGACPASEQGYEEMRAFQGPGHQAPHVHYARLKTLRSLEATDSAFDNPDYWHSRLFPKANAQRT

[2] = target: T1, Human HER3, endogenous, on human cancer …; experiment: cell-based or functional assay; remark: listed apart in the source
[3] = target: T2, Hu HER3: CD33-[Human HER3, residues 20-640]-TAG (human, UniProt P21860 20-640); experiment: SET, IgG vs soluble HER3-Tag
T2 construct: also called hu HER3-Tag; HER3-Tag; not shown: C-terminal TAG (e.g., FLAG TAG)
T2 sequence (P21860 20-640): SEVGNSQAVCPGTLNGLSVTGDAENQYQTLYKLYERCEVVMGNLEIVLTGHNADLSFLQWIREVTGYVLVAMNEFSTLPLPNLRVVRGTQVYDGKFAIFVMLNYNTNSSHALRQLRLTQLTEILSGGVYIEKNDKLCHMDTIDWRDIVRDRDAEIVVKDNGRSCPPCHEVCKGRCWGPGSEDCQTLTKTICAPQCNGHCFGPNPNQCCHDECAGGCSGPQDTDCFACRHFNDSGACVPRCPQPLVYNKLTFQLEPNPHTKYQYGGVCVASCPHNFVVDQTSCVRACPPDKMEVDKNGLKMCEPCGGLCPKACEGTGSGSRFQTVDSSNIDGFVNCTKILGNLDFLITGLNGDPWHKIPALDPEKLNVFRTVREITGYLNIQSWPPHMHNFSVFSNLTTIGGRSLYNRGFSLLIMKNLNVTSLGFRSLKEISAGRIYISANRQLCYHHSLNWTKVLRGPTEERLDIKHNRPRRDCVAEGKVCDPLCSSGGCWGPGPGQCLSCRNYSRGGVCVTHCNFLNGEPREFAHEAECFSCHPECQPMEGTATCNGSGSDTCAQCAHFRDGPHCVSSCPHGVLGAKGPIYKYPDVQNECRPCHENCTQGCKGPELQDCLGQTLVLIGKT
Procedure: Affinity determination in solution was essentially performed as previously described (Friguet et al., (1985) J Immunol Methods 77:305-19). In order to improve the sensitivity and accuracy of the SET method, it was transferred from classical ELISA to ECL based technology (Haenel et al., (2005) Anal Biochem 339:182-84).
The data was evaluated with XLfit software (ID Business Solutions) applying customized fitting models.
Antibody affinity was determined by solution equilibrium titration (SET) as described above. The results are summarized in Table 3 and example titration curves for MOR12616 and MOR12925 are contained in FIG. 1.

[4] = target: T1, Human HER3, endogenous, on human cancer …; experiment: cell-based or functional assay; remark: listed apart in the source

Row | Binder | BT474 pHER3 % inhibition [1] [%] | BT474 pHER3 IC50 [1] [pM] | MCF7 pHER3 % inhibition [1] [%] | MCF7 pHER3 IC50 [1] [pM] | SK-Br-3 pHER3 % inhibition [1] [%] | SK-Br-3 pHER3 IC50 [1] [pM] | BT-474 pAkt (S473) % inhibition [2] [%] | BT-474 pAkt (S473) IC50 [2] [pM] | MCF7 pAkt (S473) % inhibition [2] [%] | MCF7 pAkt (S473) IC50 [2] [pM] | SK-Br-3 pAkt (S473) % inhibition [2] [%] | SK-Br-3 pAkt (S473) IC50 [2] [pM] | Kd [3] [pM] | BT-474 proliferation % inhibition [4] [%] | BT-474 proliferation IC50 [4] [pM] | MCF7 proliferation % inhibition [4] [%] | MCF7 proliferation IC50 [4] [pM] | SK-Br-3 proliferation % inhibition [4] [%] | SK-Br-3 proliferation IC50 [4] [pM]
1 | B1 | 70 | 431 | 74 | 277 | 77 | 124 | 81 | 274 | 76 | 248 | 91 | 60 | 51 | 35 | 6260 | 49 | 151 | 41 | 230
2 | B2 | 61 | 806 | 71 | 374 | 79 | 227 | 73 | 1180 | 71 | 412 | 90 | 113 | 64 | 27 | 3100 | – | – | 46 | 732
3 | B3 | 62 | 708 | 72 | 354 | 79 | 106 | 75 | 1190 | 67 | 296 | 91 | 89 | 54 | 37 | 2560 | 53 | – | 45 | 2350
4 | B4 | 61 | 496 | – | – | 78 | 130 | 82 | 167 | – | – | 89 | 92 | 24 | 48 | 924 | – | – | 48 | 285
5 | B5 | 41 | 271 | – | – | 70 | 90 | 86 | 291 | – | – | 86 | 63 | 25 | 37 | 546 | – | – | 45 | 53
6 | B6 | 56 | 364 | – | – | 76 | 62 | 83 | – | – | – | 86 | 52 | 28 | 36 | 560 | – | – | 48 | 134
7 | B7 | 60 | 19500 | – | – | 77 | 107 | 76 | 378 | – | – | 84 | 76 | 27 | 36 | 671 | – | – | 49 | 326
8 | B8 | 71 | 643 | 78 | 267 | 83 | 107 | 84 | 472 | – | – | 95 | 120 | 30 | 42 | 376 | 69 | 56 | 41 | 310
